Patent US20210017257A1

How the values were obtained:
[1] = target: SpA in the cell wall of Staphylococcus aureus (strain ATCC #25923 and clinical isolate OOX) (Staphylococcus aureus) (UniProt P38507); experiment: flow cytometry: S. aureus strain ATCC #25923 incubated with biotinylated antibody (negative control), then streptavidin-APC
[2] = target: SpA in the cell wall of Staphylococcus aureus (strain ATCC #25923 and clinical isolate OOX) (Staphylococcus aureus) (UniProt P38507); experiment: flow cytometry: S. aureus clinical isolate OOX incubated with biotinylated antibody (negative control), then streptavidin-APC
[3] = target: SpA in the cell wall of Staphylococcus aureus (strain ATCC #25923 and clinical isolate OOX) (Staphylococcus aureus) (UniProt P38507); experiment: flow cytometry: S. aureus strain ATCC #25923 by the legend (sheet prints 25935) pre-incubated with human sera for 15 minutes, then biotinylated MABp1-IgG3 (isotype-matched negative control), then streptavidin-APC
[4] = target: SpA in the cell wall of Staphylococcus aureus (strain ATCC #25923 and clinical isolate OOX) (Staphylococcus aureus) (UniProt P38507); experiment: flow cytometry: S. aureus clinical isolate OOX pre-incubated with human sera for 15 minutes, then biotinylated MABp1-IgG3 (isotype-matched negative control), then streptavidin-APC
[5] = target: MABp1-IgG1; experiment: flow cytometry: S. aureus strain ATCC #25923 incubated with unlabeled MABp1 (negative control), then biotinylated recombinant Fcγ receptor 1, then streptavidin-APC
[6] = target: MABp1-IgG1; experiment: flow cytometry: S. aureus clinical isolate OOX incubated with unlabeled MABp1 (negative control), then biotinylated recombinant Fcγ receptor 1, then streptavidin-APC

Chain of MABp1-IgG3 (antibody) (VH): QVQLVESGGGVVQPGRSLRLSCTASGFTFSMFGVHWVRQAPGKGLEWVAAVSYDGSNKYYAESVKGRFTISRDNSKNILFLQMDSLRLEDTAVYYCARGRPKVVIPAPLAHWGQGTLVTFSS
Chain of MABp1-IgG3 (antibody) (VL): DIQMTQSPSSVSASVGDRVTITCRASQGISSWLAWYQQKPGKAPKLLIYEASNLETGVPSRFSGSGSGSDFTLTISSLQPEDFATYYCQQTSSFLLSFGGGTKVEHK
Chain of biotinylated recombinant Fcγ receptor 1 (P12314 16-292): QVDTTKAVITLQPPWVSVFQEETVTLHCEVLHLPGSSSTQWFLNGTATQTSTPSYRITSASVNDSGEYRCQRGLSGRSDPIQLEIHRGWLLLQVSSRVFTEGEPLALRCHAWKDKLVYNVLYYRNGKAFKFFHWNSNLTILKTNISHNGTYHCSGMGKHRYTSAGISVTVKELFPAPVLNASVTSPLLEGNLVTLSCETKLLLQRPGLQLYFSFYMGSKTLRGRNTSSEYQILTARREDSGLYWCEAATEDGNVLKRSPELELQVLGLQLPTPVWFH

MABp1-IgG1 (antibody) was tested. Which Mean:FL4-H [1] did it give?
Its Mean:FL4-H is 46.7.

And the Mean:FL4-H [2]?
The Mean:FL4-H was 29.8.

MABp1-IgG3 (antibody) was tested. Which Mean:FL4-H [3] did it give?
Its Mean:FL4-H is 10.3.

What about the Mean:FL4-H [4] of the same substance?
The Mean:FL4-H was 19.1.

What does the source list for biotinylated recombinant Fcγ receptor 1?
Mean:FL4-H [5]: 19.8; Mean:FL4-H [6]: 18.6
